Assay results taken from patent US20160185837A1, “GIP AND GLP-1 RECEPTOR DUAL-AGONISTS FOR THE TREATMENT OF DIABETES” (Medimmune Limited, priority 2013, published 2016).
Numbering of substitutions follows the chain as printed. One block for each binder: values may come before it.

Assays:
Test in all cases: cell-based or functional assay
[1] = target: T1, human GIP receptor (human) (UniProt P48546)
T1 sequence (looked up): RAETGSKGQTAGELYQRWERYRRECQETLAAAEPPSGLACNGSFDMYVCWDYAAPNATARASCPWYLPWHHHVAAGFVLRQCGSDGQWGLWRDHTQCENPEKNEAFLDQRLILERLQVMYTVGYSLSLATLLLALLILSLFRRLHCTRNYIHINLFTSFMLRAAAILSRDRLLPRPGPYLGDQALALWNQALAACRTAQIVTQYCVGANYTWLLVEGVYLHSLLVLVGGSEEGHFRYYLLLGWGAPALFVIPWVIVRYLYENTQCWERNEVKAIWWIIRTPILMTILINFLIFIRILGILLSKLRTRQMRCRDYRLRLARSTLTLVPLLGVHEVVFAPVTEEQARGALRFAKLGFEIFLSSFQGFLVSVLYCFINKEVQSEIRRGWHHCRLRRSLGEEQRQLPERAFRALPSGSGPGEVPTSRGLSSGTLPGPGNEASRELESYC

[2] = target: human GLP-1 receptor (human) (UniProt P43220)
[3] = target: human glucagon receptor (human) (UniProt P47871)
[4] = target: T2, mouse GIP receptor (mouse) (UniProt Q0P543)
T2 sequence (looked up): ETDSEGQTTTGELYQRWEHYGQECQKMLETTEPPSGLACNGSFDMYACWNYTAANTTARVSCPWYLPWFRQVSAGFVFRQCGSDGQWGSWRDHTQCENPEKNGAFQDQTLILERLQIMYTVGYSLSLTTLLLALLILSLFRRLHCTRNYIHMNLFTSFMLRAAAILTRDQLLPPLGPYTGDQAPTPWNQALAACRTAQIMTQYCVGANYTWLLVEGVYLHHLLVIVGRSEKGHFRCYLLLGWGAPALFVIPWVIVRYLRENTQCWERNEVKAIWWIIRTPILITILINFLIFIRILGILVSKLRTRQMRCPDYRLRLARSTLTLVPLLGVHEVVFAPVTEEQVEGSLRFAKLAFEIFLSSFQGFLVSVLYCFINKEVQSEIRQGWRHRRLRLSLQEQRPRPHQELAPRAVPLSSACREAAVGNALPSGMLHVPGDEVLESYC

Chain of human glucagon receptor (human) (P47871 26-477): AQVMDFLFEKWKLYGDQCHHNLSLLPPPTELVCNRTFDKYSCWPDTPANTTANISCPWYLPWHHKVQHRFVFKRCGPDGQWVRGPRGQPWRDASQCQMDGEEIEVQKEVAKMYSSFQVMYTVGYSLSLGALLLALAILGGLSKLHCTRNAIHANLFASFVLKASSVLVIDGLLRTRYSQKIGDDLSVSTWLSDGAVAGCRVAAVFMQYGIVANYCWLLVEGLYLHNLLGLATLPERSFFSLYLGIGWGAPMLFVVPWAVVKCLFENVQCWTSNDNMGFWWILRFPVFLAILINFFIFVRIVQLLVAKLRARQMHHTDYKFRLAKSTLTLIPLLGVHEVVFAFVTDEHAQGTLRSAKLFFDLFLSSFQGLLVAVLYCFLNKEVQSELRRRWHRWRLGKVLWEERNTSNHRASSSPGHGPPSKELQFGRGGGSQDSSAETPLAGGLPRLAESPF
Chain of human GLP-1 receptor (human) (P43220 24-463): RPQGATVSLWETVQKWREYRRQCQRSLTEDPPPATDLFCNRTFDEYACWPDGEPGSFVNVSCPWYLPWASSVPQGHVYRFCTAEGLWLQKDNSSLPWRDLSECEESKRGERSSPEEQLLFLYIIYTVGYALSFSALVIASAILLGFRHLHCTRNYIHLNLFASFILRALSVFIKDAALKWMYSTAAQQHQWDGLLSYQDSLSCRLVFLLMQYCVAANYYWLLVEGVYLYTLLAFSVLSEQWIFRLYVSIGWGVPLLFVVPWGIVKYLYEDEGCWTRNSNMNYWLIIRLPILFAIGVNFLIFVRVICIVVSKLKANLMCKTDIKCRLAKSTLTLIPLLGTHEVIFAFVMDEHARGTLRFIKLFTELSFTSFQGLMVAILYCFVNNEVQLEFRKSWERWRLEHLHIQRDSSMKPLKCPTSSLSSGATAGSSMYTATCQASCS

- cAMP EC50 [1]: 0.35 nM
- cAMP EC50 [2]: 0.57 nM
B1: IP224 (Fc fusion)
chain: YSEGTFTSDVSSYMERQAIDEFIAWLLGGGAAAGGSGSTASSGSGSATGGGGAATHTCPPCPAPEF

- cAMP EC50, Batch 1 [3]: > 650 nM
- cAMP EC50, Batch 1 [1]: 110 nM
- cAMP EC50, Batch 1 [2]: 0.042 nM
B3: IP203 (Fc fusion)
chain: B1 chain with Y1H, S2G, M14L, R16G, I19A, D20K, L27V, G28K

- cAMP EC50 [3]: > 17.2 nM
- cAMP EC50 [4]: 0.05 nM
- cAMP EC50 [2]: > 17.2 nM
B5: IP404 (Fc fusion)
chain: YSEGTFTSLYRIHKERQAIDEFIAKLLKGGGSGGGGSGGGGSGGGGSGGGGSGGGGSGGGGSGGGGSACPPC

- cAMP EC50 [3]: > 59 nM
- cAMP EC50, hGIPr (C3) line [1]: 1.8 nM
- cAMP EC50 [4]: 0.012 nM
- cAMP EC50 [2]: > 59 nM
B6: IP422 (Fc fusion)
chain: B5 chain with F6H, L9D, Y10L, H13L, K14L, K25F

- cAMP EC50 [3]: > 166 nM
- cAMP EC50 [4]: 0.38 nM
- cAMP EC50 [2]: > 166 nM
B7: IP408 (Fc fusion)
chain: B5 chain with F6H, L9D, Y10L, H13L, K14L

- cAMP EC50, Batch 1 [1]: 310 nM
- cAMP EC50, Batch 1 [2]: 0.058 nM
B8: IP238 (Fc fusion)
chain: HGEGTFTSDVSSYLEGQAAKEFIAWLVKGGGGGGSGGGGSGGGGSAESKYGPPCPPC

- cAMP EC50 [3]: 900 nM
- cAMP EC50 [1]: 0.0078 nM
- cAMP EC50, Batch 1 [1]: 0.0085 nM
- cAMP EC50 [2]: 4100 nM
B10: IP207 (Fc fusion)
chain: YAEGTFISDYSIAMDKIHQQDFVNWLLAQKGKKNDWKHNITQAAAGGSGSTASSGSGSATGGGGAATHTCPPCPAPELL

- cAMP EC50 [1]: 2300 nM
Binder: GGGGGSGGGGSGGGGSGGGGSATHTCPPC (Fc fusion, not shown: a dimerising Fc or GST) [IP288]

- cAMP EC50, Batch 1 [2]: 0.073 nM
B11: IP196 (Fc fusion)
chain: HGEGTFTSDVSSYLEGQAAKEFIAWLVKGAAAGGSGSTASSGSGSATGGGGAPEF

- cAMP EC50 [1]: 0.18 nM
- cAMP EC50 [2]: 0.78 nM
B15: IP197 (Fc fusion)
chain: YSEGTFTSDVSSYMERQAIDEFIAWLLAGAAAGGSGSTASSGSGSATGGGGAATHTCPPCPAPEF

- cAMP EC50 [1]: 17 nM
- cAMP EC50 [2]: 1.6 nM
B16: IP208 (Fc fusion)
chain: B15 chain with M14L, R16G, I19A, D20K

- cAMP EC50 [2]: 0.069 nM
B17: IP199 (Fc fusion)
chain: B15 chain with Y1H, S2G, M14L, R16G, I19A, D20K

- cAMP EC50, Batch 1 [2]: 0.036 nM
B18: IP233 (Fc fusion)
chain: B15 chain with Y1H, S2G, M14L, R16E, I19A, D20K, L27V, A28K

- cAMP EC50 [3]: > 163 nM
- cAMP EC50 [4]: 2.3 nM
- cAMP EC50 [2]: 0.25 nM
B21: IP407 (Fc fusion)
chain: YSEGTFTSDYSKLLEEEAIRLFIEWLLAGGGGGGSGGGGSGGGGSGGGGSATHTCPPC

- cAMP EC50 [3]: 21 nM
- cAMP EC50 [4]: 2.6 nM
- cAMP EC50 [2]: 0.082 nM
B22: IP420 (Fc fusion)
chain: B21 chain with I19T

- cAMP EC50 [1]: 0.12 nM
- cAMP EC50 [2]: 850 nM
B27: IP204 (Fc fusion)
chain: HGEGTFISDYSIAMDKIHQQDFVNWLLAQKAAAGGSGSTASSGSGSATGGGGAATHTCPPCPAPEF

- cAMP EC50, Batch 1 [2]: 0.067 nM
B30: IP231 (Fc fusion)
chain: HGEGTFTSDVSSYLEEQAAKEFIAWLVKGGGGGGSGGGGSGGGGSGGGGSATHTCPPC

The next lines start with the binder.

B2: IP150 (Fc fusion)
chain: B1 chain with M14L, R16G, I19A, D20K, L27V, G28A, A32P, A33P
- cAMP EC50 [1]: 16 nM
- cAMP EC50 [2]: 0.033 nM

B4: IP176 (Fc fusion)
chain: B1 chain with D20S, G28K, G30P
- cAMP EC50 [1]: 0.42 nM
- cAMP EC50 [2]: 0.6 nM

B9: IP132 (Fc fusion)
chain: HGEGTFTSDVSSYLEGQAAKEFIAWLVKGGGGGGSGGGGSGGGGSGGGGSATHTCPPCPAPEF
- cAMP EC50, Batch 2 [1]: 81 nM
- cAMP EC50, Batch 2 [2]: 0.04 nM

B12: IP174 (Fc fusion)
chain: HGEGTFTSDVSSYLEEEAAKEFIAWLVAGGAAAGGSGSTASSGSGSATGGGGAATHTCPPCPAPEF
- cAMP EC50 [1]: 460 nM
- cAMP EC50 [2]: 0.032 nM

B13: IP195 (Fc fusion)
chain: HGEGTFTSDVSSYLEGQAAKEFIAWLVKGAAAGGSGSTASSGSGSATGGGGESKYGPPCPPCPAPEF
- cAMP EC50, Batch 1 [2]: 0.061 nM

B14: IP188 (Fc fusion)
chain: YSEGTFISDYSIAMDKIHQQDFVNWLLAQKAPPGGGGGSGGGGSGGGGSGGGGSATHTCPPCPAPEF
- cAMP EC50, Batch 1 [3]: 350 nM
- cAMP EC50, Batch 1 [1]: 0.0038 nM
- cAMP EC50, Batch 1 [2]: 500 nM

B19: IP171 (Fc fusion)
chain: B15 chain with D20S
- cAMP EC50 [1]: 0.39 nM
- cAMP EC50 [2]: 0.53 nM

B20: IP173 (Fc fusion)
chain: B15 chain with M14L, R16E, I19A, D20K
- cAMP EC50 [1]: 1.2 nM
- cAMP EC50 [2]: 0.23 nM

B23: IP187 (Fc fusion)
chain: HGEGTFTSDVSSYLEGQAAKEFIAWLVKGAPPGGGGGSGGGGSGGGGSGGGGSATHTCPPCPAPEF
- cAMP EC50, Batch 1 [1]: 540 nM
- cAMP EC50, Batch 1 [2]: 0.037 nM

B24: IP146 (Fc fusion)
chain: HGEGTFTSDVSSYLEGQAAKEFIAWLVKGAAAGGSGSTASSGSGSATGGGGAACPPCPAPEF
- cAMP EC50, Batch 1 [3]: 650 nM
- cAMP EC50, Batch 1 [1]: 83 nM
- cAMP EC50, Batch 1 [2]: 0.049 nM

B25: IP194 (Fc fusion)
chain: B24 chain with A52P, A53P
- cAMP EC50, Batch 1 [2]: 0.061 nM

B26: IP193 (Fc fusion)
chain: HGEGTFTSDVSSYLEGQAAKEFIAWLVKGAAAGGSGSTASSGSGSATGGGGCPPCPAPEF
- cAMP EC50, Batch 1 [3]: 780 nM
- cAMP EC50, Batch 1 [1]: 450 nM
- cAMP EC50, Batch 1 [2]: 0.064 nM

B28: IP191 (Fc fusion)
chain: HGEGTFTSDVSSYLEGQAAKEFIAWLVKGAAAGGSGSTASSGSGSATGGGGAATYTCPPCPAPEF
- cAMP EC50, Batch 1 [2]: 0.057 nM

B29: IP192 (Fc fusion)
chain: B28 chain with Y55S
- cAMP EC50, Batch 1 [2]: 0.043 nM
